Test results from patent publication US12123876B2, “Antibody binding to HEG1 and use of the antibody for detection and treatment of mesothelioma” (Kanagawa Prefectural Hospital Organization, priority 2016, dated 2024).

B1: 7.623: SEQ ID NO: 48 (SKSPSLVSLPTEST) bonded to SLURPgpi (protein)
chain: SKSPSLVSLPTESTGSLKCYTCKEPMTSASCRTITRCKPEDTACMTTLVTVEAEYPFNQSPVVTRSCSSSCVATDPDSIGAAHLIFCCFRDLCNSELSRDGAPSLGSPGGLLLALALFLLLGVLL
B2: intelectin-fused antibody: VH and CH1 of SKM9-2 H chain fused to human intelectin positions 19-313, co-expressed with SKM9-2 L chains (protein)
chain: QVQLQQPGAELVRPGASVKLSCKASGFSFTTYWITWVKQRPGQGLEWIGMIHPSDSETRLSQTFKDKATLTVDKSSNTAYMQFSSPTSEDSAVYYCVRDFDVWGAGTTVTVSSAKTTPPSVYPLAPGSAAQTNSMVTLGCLVKGYFPEPVTVTWNSGSLSSGVHTFPAVLQSDLYTLSSSVTVPSSTWPSETVTCNVAHPASSTKVDKKIVPRDCGTDEANTYFKEWTCSSSPSLPRSCKEIKDECPSAFDGLYFLRTENGVIYQTFCDMTSGGGGWTLVASVHENDMRGKCTVGDRWSSQQGSKADYPEGDGNWANYNTFGSAEAATSDDYKNPGYYDIQAKDLGIWHVPNKSPMQHWRNSALLRYRTDTGFLQTLGHNLFGIYQKYPVKYGEGKCWTDNGPVIPVVYDFGDAQKTASYYSPYGQREFTAGFVQFRVFNNERAANALCAGMRVTGCNTEHHCIGGGGYFPEASPQQCGDFSGFDWSGYGTHVGYSSSREITEAAVLLFYR
light: DVLMTQTPLSLPVSLGDQASISCRSSQNIVHNNGNTYLGWYLQKPGQSPKLLIFKVSNRFSGVPDRFSGSGSGTDFTLKISRVEAEDLGVYYCFQGSHIPRTFGGGTRLEIKRADAAPTVSIFPPSSEQLTSGGASVVCFLNNFYPKDINVKWKIDGSERQNGVLNSWTDQDSKDSTYSMSSTLTLTKDEYERHNSYTCEATHKTSTSPIVKSFNRNEC
B3: 7.62: SEQ ID NO: 45 (EKVITESKSPSLVSLPTEST) bonded to SLURPgpi (protein)
chain: EKVITESKSPSLVSLPTESTGSLKCYTCKEPMTSASCRTITRCKPEDTACMTTLVTVEAEYPFNQSPVVTRSCSSSCVATDPDSIGAAHLIFCCFRDLCNSELSRDGAPSLGSPGGLLLALALFLLLGVLL

How the values were obtained:
SKM9-2 antibody = experiment: Western blot reactivity of human HEG1 fragments expressed in ACC-MESO-1 with SKM9-2 antibody; assay type: binding, mouse; conditions: Western blot of cell lysate
Method: In this Example, the mesothelioma cell line ACC-MESO-1 was allowed to express a human HEG1 fragment with the endogenous HEG1 of ACC-MESO-1 knocked down, and the reactivity with the SKM9-2 antibody was examined. Subsequently, the reactivity with the antibody was tested for the epitope region through alanine scanning, and key amino acids for binding to the antibody were determined.
Gene transfer was performed with HEG1 siRNA (H9106) (SEQ ID NOs: 40, 41) and human HEG1 for the mesothelioma cell line ACC-MESO-1, and the reactivity of the SKM9-2 was examined through Western blot analysis. A full length protein (HEG1 full length) or a fragment (HEG1 3 kb, HEG1 2 kb, or HEG1 1 kb) of the human HEG1 was used. The full length human HEG1 protein, a protein having the amino acid sequence set forth in SEQ ID NO: 35, was obtained through inserting a base sequence set forth in SEQ ID NO: 34 into pFLAG-CMV1 (Sigma-Aldrich Japan K.K.) to obtain a plasmid, transforming the plasmid, and allowing the mesothelioma cell line to express the plasmid. Fragment HEG1 3 kb was obtained through inserting a fragment corresponding to a sequence from position 285, leucine, to position 1387, phenylalanine, of SEQ ID NO: 35 into pFLAG-CMV1 (Sigma-Aldrich Japan K.K.) in an in-frame manner, and allowing the mesothelioma cell line to express the resultant. HEG1 2 kb and HEG1 1 kb were obtained through allowing the mesothelioma cell line to express products similarly obtained from a fragment corresponding to a sequence from position 677, leucine, to position 1387, phenylalanine, of SEQ ID NO: 35 and a fragment corresponding to a sequence from position 992, valine, to position 1387, phenylalanine, of SEQ ID NO: 35, respectively. Each cell lysate was analyzed through Western blot with the SKM9-2 antibody.
Further, the region in exon 7 of HEG1 was analyzed in detail. The amino acid sequence of a part of exon 7 of HEG1 was connected to the N-terminal side of a protein obtained by connecting a GPI anchor signal to human SLURP1 (SEQ ID NO: 42; hereinafter referred to as “SLURPgpi”) to produce a fusion protein, and the reactivity of the SKM9-2 was examined through Western blot analysis with the fusion protein. A signal sequence (SEQ ID NO: 43) was added to the N-terminal of the fusion protein before expression.
Used fusion proteins of a partial sequence of exon 7 of HEG1 and SLURPgpi were as follows: • a fragment obtained by bonding a fragment from amino acid No. 783, aspartic acid, to amino acid No. 991, serine, to SLURPgpi (7.6); • a fragment obtained by bonding a fragment from amino acid No. 832, glutamine, to amino acid No. 991, serine, to SLURPgpi (7.7); • a fragment obtained by bonding a fragment from amino acid No. 886, glutamine, to amino acid No. 991, serine, to SLURPgpi (7.8); • a fragment obtained by bonding a fragment from amino acid No. 941, alanine, to amino acid No. 991, serine, to SLURPgpi (7.9); • a fragment obtained by bonding SEQ ID NO: 44 to SLURPgpi (7.61); • a fragment obtained by bonding SEQ ID NO: 45 to SLURPgpi (7.62); • a fragment obtained by bonding SEQ ID NO: 46 to SLURPgpi (7.63); • a fragment obtained by bonding SEQ ID NO: 47 to SLURPgpi (7.64); • a fragment obtained by bonding SEQ ID NO: 48 to SLURPgpi (7.623); • a fragment obtained by bonding SEQ ID NO: 49 to SLURPgpi (7.6231); • a fragment obtained by bonding SEQ ID NO: 50 to SLURPgpi (7.6232); • a fragment obtained by bonding SEQ ID NO: 51 to SLURPgpi (7.6241); and • a fragment obtained by bonding SEQ ID NO: 52 to SLURPgpi (7.6242).

[1] = test system: HEG1 protein (purified from ACC-MESO4 or recombinant soluble HEG1); experiment: Western blot / dot blot reactivity of antibodies with HEG1 protein; assay type: binding, human; conditions: Western blot, anti-human intelectin antibody-HRP as secondary antibody
Method: A massive amount of ACC-MESO4 was cultured, and purification of an antigen from the cell lysate was performed. Cells from 240 10-cm dishes were solubilized with 50 mM Tris buffer (pH 8.0) containing 1% TRITON™ X-100 (detergent), 1% CHAPS, 1 mM EDTA, 50 mM NaCl, and protease inhibitor (Complete, Roche Life Science), and then centrifuged. The resulting supernatant was dialyzed with 20 mM acetate buffer (pH 5.0) at 4° C. for 18 hours to afford an acidic precipitate. The precipitate was extracted with 20 mM Tris buffer (pH 7.2) containing 0.1% TWEEN® 20 (polyethylene glycol sorbitan monolaurate, polyoxyethylenesorbitan monolaurate) and 150 mM NaCl and centrifuged, and the resulting supernatant was concentrated by using an Amicon Ultra-15, 100 kDa (Merck Millipore) and subjected to solution exchange with 20 mM Tris buffer (pH 8.0) containing 6 M guanidine hydrochloride. To the concentrated solution, tris(2-carboxyethyl)phosphine hydrochloride with a final concentration of 10 mM was added, and the resultant was heated at 60° C. for 30 minutes, and iodoacetamide with a final concentration of 40 mM was then added thereto, and reacted at room temperature for 3 hours. The reaction solution was subjected to gel filtration chromatography (SUPEROSE® 6 INCREASE (prepacked column) 10/300 GL (GE Healthcare)) in 20 mM Tris buffer (pH 8.0) containing 6 M guanidine hydrochloride and 0.05% TWEEN® 20 (polyethylene glycol sorbitan monolaurate, polyoxyethylenesorbitan monolaurate), and fractions positive for dot blot were collected. The sample was dialyzed with 25 mM phosphate buffer (pH 7.0) containing 4 M urea and 0.05% TWEEN® 20 (polyethylene glycol sorbitan monolaurate, polyoxyethylenesorbitan monolaurate) at room temperature overnight, and applied to a Mono Q 5/50 GL (GE Healthcare). The column was washed with 25 mM phosphate buffer (pH 7.0) containing 4 M urea and 0.05% TWEEN® 20 (polyethylene glycol sorbitan monolaurate, polyoxyethylenesorbitan monolaurate), and thereafter elution was performed with an NaCl salt concentration gradient of 0 to 1 M. Fractions strongly positive for dot blot were collected, and dialyzed with 25 mM phosphate buffer (pH 7.2) containing 150 mM NaCl and 0.05% TWEEN® 20 (polyethylene glycol sorbitan monolaurate, polyoxyethylenesorbitan monolaurate) at room temperature overnight, and applied to 1 mL of WGA-SEPHAROSE® (wheat germ agglutinin-crosslinked, beaded-form of agarose) (J-OIL MILLS, Inc.). After washing with buffer, elution was performed with 25 mM phosphate buffer (pH 7.2) containing 0.2 M N-acetylglucosamine, 150 mM NaCl, and 0.05% TWEEN® 20 (polyethylene glycol sorbitan monolaurate, polyoxyethylenesorbitan monolaurate), and the eluent was concentrated with a Centricon (YM-30) (Millipore). Gel filtration chromatography (SUPEROSE® 6 INCREASE (prepacked column) 10/300 GL (GE Healthcare)) was performed in 25 mM phosphate buffer (pH 7.2) containing 3 M GdnHCI and 0.5% CHAPS, and fractions strongly positive for dot blot were dialyzed with 20 mM NH4HCO3 containing 0.5% CHAPS at room temperature overnight to afford a purified antigen.
The dot blot was performed as follows. A PVDF membrane (Immobilon-P, Merck Millipore) was soaked in methanol, and then washed and impregnated with pure water. The hydrophilized PVDF membrane was placed on a filter paper containing water to avoid air inclusion, removed of excessive moisture, and soaked with 1 to 5 μL of the sample in dots fed by a micropipette. After the membrane was dried at room temperature overnight, the membrane was hydrophilized again with methanol and pure water, and blocked with 20 mM Tris buffer (pH 7.4) containing 5% skim milk, 0.1% TWEEN® 20 (polyethylene glycol sorbitan monolaurate, polyoxyethylenesorbitan monolaurate), and 150 mM NaCl (blocking buffer) at room temperature for 1 hour. […]

Molecule | Binding to SKM9-2 antibody (positive/negative) (SKM9-2 antibody) | Binding to SKM9-2 antibody (positive/negative) (SKM9-2 antibody; listed as fragment 7.623) | Recognition of glycosylated HEG1 protein [1] | Recognition of glycosylated HEG1 protein ([1]; listed as protein complex including VH regions and CH1 regions of SKM9-2 antibody fused to) | Binding to SKM9-2 antibody (positive/negative) (SKM9-2 antibody; listed as fragment 7.62)
B1 | positive | positive signal | – | – | –
B2 | – | – | recognized the glycosylated HEG1 protein | allows detection of HEG1 protein | –
B3 | positive | – | – | – | positive signal
